In paper PMC10673995, “Discovery of a novel cardiac-specific myosin modulator using artificial intelligence-based virtual screening” (Nature Communications, 2023):

Molecular target: myosin S2 tail domain (UniProt P12883)
Experiment: MST; Monolith NT.115; 100 nmol/L Alexa647-labeled protein fixed, partner titrated (which was labeled is not told); 20 mmol/L Mops pH 7, 1 mmol/L MgCl2, 50 mmol/L KCl, 1 mmol/L DTT, 0.05% Tween-20; various nucleotides, with and without F10

Chain of myosin S2 tail domain (P12883 whole entry, the tested form may be a part): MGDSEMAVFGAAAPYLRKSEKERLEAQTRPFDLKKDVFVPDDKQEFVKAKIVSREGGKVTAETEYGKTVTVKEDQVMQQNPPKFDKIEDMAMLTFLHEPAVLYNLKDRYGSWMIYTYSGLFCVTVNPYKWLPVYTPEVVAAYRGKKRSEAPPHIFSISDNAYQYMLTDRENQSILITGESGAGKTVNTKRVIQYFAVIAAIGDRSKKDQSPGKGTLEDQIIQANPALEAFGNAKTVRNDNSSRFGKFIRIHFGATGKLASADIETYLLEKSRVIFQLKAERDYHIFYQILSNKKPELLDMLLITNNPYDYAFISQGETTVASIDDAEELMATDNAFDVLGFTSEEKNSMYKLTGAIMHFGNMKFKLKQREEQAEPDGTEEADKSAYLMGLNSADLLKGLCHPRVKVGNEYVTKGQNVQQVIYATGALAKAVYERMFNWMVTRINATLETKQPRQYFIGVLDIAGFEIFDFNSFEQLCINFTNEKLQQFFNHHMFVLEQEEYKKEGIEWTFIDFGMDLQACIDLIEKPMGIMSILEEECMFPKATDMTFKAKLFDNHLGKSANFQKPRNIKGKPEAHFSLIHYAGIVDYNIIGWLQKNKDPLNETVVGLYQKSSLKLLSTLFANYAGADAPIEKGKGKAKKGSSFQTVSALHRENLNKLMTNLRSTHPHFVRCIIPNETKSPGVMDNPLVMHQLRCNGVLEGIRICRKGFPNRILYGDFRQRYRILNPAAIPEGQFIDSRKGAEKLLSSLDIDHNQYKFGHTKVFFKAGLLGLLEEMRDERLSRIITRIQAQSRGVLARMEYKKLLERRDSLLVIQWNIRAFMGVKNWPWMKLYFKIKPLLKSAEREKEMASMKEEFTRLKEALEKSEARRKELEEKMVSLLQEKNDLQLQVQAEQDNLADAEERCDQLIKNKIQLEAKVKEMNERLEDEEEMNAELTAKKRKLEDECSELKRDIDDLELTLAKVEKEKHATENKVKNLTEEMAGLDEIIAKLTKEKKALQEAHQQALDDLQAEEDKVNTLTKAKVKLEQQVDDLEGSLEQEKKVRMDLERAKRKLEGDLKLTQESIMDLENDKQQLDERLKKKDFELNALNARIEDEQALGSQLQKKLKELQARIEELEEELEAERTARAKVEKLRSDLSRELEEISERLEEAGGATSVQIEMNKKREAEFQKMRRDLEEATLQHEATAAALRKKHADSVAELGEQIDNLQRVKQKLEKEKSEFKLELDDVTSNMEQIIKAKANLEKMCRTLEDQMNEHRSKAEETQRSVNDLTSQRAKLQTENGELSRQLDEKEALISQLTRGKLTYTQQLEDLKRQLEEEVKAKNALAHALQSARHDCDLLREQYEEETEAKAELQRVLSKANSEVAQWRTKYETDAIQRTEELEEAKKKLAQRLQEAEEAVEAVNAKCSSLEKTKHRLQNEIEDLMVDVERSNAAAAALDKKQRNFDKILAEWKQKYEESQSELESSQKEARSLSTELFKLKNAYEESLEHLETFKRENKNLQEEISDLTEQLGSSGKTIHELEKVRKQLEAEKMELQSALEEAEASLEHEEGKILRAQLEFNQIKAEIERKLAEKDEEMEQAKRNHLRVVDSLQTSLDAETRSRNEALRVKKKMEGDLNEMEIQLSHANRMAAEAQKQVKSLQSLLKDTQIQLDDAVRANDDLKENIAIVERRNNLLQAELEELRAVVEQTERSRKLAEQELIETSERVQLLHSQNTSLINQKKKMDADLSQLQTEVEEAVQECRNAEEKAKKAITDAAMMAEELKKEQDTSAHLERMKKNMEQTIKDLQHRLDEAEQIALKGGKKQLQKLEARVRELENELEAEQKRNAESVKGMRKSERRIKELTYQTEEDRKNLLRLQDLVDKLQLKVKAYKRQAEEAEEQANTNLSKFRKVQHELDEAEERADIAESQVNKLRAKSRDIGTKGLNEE

## bovine β-cardiac myosin S1 (from UniProt Q9BE39 1-1935; P85100 1-199) (domain or fragment)
  Kd: 15 µM
